Consider one substance from US20170114115A1.

Common to all, as to experiment: cell-based or functional assay
Assay [1] concerns the target T1, human glucose-dependent insulinotropic polypeptide receptor (human) (UniProt P48546).
T1 sequence (looked up): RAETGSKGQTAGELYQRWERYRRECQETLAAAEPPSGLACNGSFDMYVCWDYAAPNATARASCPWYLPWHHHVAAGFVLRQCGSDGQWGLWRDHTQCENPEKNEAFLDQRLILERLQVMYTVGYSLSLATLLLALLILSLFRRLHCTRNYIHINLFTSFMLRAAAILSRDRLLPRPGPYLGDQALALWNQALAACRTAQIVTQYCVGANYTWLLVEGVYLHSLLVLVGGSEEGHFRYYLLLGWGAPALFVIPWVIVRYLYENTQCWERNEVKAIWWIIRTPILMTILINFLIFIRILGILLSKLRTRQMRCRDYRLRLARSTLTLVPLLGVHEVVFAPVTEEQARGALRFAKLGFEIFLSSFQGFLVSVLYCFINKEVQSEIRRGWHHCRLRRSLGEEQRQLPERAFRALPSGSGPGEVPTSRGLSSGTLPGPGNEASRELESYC

The target of assay [2] is human Glucagon-Like Peptide-1 receptor (human) (UniProt P43220).
In assay [3] the target is recombinant human glucagon receptor (human) (UniProt P47871).
recombinant human glucagon receptor (human), sequence (P47871 26-477): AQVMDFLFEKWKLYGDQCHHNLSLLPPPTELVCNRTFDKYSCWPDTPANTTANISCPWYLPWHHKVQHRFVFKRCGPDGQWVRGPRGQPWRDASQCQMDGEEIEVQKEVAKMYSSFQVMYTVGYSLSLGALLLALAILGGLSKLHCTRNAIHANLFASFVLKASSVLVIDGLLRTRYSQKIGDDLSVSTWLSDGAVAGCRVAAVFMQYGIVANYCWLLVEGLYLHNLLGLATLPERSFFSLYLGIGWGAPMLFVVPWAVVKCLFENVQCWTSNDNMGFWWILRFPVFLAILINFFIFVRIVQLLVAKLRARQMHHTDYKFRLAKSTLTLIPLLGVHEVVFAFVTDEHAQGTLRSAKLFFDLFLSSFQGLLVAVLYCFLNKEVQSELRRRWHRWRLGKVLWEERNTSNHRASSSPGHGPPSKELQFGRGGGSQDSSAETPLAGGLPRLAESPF

dulaglutide (Fc fusion), sequence (chain): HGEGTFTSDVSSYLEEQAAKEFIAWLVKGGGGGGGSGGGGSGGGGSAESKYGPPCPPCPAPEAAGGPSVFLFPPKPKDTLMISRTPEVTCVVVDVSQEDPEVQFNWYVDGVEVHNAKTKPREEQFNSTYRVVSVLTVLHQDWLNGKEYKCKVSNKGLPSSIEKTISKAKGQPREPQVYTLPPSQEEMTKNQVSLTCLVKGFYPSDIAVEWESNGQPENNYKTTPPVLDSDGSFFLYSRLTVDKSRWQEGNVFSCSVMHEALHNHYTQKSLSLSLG
human Glucagon-Like Peptide-1 receptor (human), sequence (P43220 24-463): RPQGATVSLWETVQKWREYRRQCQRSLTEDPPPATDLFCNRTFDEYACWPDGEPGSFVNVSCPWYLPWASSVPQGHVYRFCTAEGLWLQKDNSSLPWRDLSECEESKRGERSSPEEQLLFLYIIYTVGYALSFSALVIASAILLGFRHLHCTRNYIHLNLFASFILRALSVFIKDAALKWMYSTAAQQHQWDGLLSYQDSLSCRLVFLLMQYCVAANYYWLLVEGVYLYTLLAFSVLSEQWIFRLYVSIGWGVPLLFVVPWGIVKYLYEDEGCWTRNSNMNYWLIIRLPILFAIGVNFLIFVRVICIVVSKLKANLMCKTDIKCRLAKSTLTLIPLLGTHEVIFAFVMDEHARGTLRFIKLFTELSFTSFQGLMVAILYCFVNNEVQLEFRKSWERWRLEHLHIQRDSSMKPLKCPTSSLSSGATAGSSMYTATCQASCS

In assay [1], dulaglutide (Fc fusion) returned an EC50, GIP Receptor Assay (cAMP); sample C6.5-4 C.-4 wk of more than 100 nM; an EC50, GIP Receptor Assay (cAMP); sample C6.5-40 C.-4 wk of more than 100 nM; an EC50, GIP Receptor Assay (cAMP); sample C6.5MT-4 C.-4 wk of more than 100 nM; an EC50, GIP Receptor Assay (cAMP); sample C6.5MT-40 C.-4 wk of more than 100 nM. Also, in assay [2], the EC50, GLP-1 Receptor Assay (cAMP); sample C6.5-4 C.-4 wk is 0.37 nM; the EC50, GLP-1 Receptor Assay (cAMP); sample C6.5-40 C.-4 wk is 0.31 nM; the EC50, GLP-1 Receptor Assay (cAMP); sample C6.5MT-4 C.-4 wk is 0.4 nM; the EC50, GLP-1 Receptor Assay (cAMP); sample C6.5MT-40 C.-4 wk came to 0.29 nM. In addition, in assay [3], the EC50, Gcg Receptor Assay (cAMP); sample C6.5-4 C.-4 wk came out at 51.9 nM; the EC50, Gcg Receptor Assay (cAMP); sample C6.5-40 C.-4 wk is more than 100 nM; the EC50, Gcg Receptor Assay (cAMP); sample C6.5MT-4 C.-4 wk stood at 54 nM; the EC50, Gcg Receptor Assay (cAMP); sample C6.5MT-40 C.-4 wk is more than 100 nM.
